The source of these data is publication PMC10272835 (2023).

For orientation: Kd means a measure of binding affinity in units of concentration. A higher Kd goes with weaker binding. For orientation: koff means the rate constant with which the complex falls apart.

No end group written: not given here.

Assay in all cases: SPR
On the technique in general: SPR reads the build-up and loss of mass on a sensor chip optically.

Assay [1] concerns the target T1, C-terminal SH2 domain of SHP2.
T1 chain: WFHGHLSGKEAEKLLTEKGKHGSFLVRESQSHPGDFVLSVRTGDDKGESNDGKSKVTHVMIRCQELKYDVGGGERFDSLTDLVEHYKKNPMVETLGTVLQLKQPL

Assay [2] has as its target T2, dual SH2 domains of SHP2.
T2 chain: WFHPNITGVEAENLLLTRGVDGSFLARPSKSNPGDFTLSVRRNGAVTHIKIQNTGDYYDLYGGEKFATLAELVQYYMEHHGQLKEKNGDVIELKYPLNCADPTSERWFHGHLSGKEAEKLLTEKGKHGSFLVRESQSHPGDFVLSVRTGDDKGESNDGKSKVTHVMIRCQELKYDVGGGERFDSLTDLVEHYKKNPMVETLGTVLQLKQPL

Assay [3] concerns the target T3, N-terminal SH2 domain of SHP2.
T3 chain: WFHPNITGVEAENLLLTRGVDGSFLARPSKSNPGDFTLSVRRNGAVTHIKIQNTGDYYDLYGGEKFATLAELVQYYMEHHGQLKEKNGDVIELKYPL

The target of assay [4] is T1, C-terminal SH2 domain of SHP2.
Assay [5] deals with T2, dual SH2 domains of SHP2.
Assay [6] has as its target T3, N-terminal SH2 domain of SHP2.

B1: phosphorylated PD1 ITIM peptide (peptide)
chain: KEDPSAVPVFSVDYGELDFQWRE
modifications: also: phosphorylated, residue not given here, biotinylated, site not given here
As for B1, the Kd in assay [1] stood at 0.638 nM; in assay [2], 1.84 nM; in assay [3] it was 3.35 nM. Also, the koff turned out to be 0.00329 s⁻¹ in assay [4], 0.000121 s⁻¹ in assay [5] and 0.000297 s⁻¹ in assay [6].

B2: phosphorylated PD1 ITSM peptide (peptide)
chain: KTPEPPVPSVPEQTEYATIVFPSGMGTSS
modifications: also: phosphorylated, residue not given here, biotinylated, position not given here
Take B2: the results for the Kd in assay [1], in assay [2] and in assay [3] were 15.1 nM, 3.01 nM and 0.442 nM, respectively.
